Source: patent publication US20140127815A1

Molecular target: GPIba (CD42b) (human) (UniProt P07359)
Assay: cell-based or functional assay

Sequence of UniProt P07359 (P07359 17-652): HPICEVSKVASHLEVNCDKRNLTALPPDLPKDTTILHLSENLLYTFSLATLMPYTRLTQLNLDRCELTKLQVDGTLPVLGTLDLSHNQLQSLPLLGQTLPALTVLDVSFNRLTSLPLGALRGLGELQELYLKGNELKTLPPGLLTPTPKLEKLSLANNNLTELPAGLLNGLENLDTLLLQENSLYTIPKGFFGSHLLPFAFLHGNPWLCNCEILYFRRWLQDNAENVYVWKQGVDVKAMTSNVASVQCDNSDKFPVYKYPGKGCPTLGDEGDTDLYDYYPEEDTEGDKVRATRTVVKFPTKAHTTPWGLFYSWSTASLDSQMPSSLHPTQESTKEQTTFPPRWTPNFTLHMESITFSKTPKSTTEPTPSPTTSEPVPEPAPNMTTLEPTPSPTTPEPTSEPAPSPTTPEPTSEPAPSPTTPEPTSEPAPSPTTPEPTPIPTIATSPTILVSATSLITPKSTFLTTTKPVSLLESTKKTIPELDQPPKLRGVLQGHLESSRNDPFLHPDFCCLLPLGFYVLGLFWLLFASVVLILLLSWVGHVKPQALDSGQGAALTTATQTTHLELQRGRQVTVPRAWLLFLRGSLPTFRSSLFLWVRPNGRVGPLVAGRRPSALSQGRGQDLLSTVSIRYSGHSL

- ristocetin agglutination reaction of human peripheral blood platelets (maximum light transmission): > 10 µg/mL
Substance: HIP1 antibody
